Test results published in publication PMC8804933 (The EMBO Journal, 2021).

Key:
[1] = target: T1, ubiquitin (unlabeled, wild-type) (human, UniProt P0CG48 1-76); assay: NMR titration
[2] = target: T1, ubiquitin (unlabeled, wild-type); assay: BLI

binding result [1] | Kd [2] | Binder
binds | – | 15N-labeled UBE2S UBC E139R/E143R (residues 1-156) (domain or fragment) MNSNVENLPPHIIRLVYKEVTTLTADPPDGIKVFPNEEDLTDLQVTIEGPEGTPYAGGLFRMKLLLGKDFPASPPKGYFLTKIFHPNVGANGEICVNVLKRDWTAELGIRHVLLTIKCLLIHPNPESALNEEAGRLLLRNYERYAARARLLTEIHG
binds | – | 15N-labeled UBE2S UBC E143R (residues 1-156) (domain or fragment) MNSNVENLPPHIIRLVYKEVTTLTADPPDGIKVFPNEEDLTDLQVTIEGPEGTPYAGGLFRMKLLLGKDFPASPPKGYFLTKIFHPNVGANGEICVNVLKRDWTAELGIRHVLLTIKCLLIHPNPESALNEEAGRLLLENYERYAARARLLTEIHG
binds | – | 15N-labeled UBE2S UBC E139R (residues 1-156) (domain or fragment) MNSNVENLPPHIIRLVYKEVTTLTADPPDGIKVFPNEEDLTDLQVTIEGPEGTPYAGGLFRMKLLLGKDFPASPPKGYFLTKIFHPNVGANGEICVNVLKRDWTAELGIRHVLLTIKCLLIHPNPESALNEEAGRLLLRNYEEYAARARLLTEIHG

More lines, now with the values behind:

Binder | binding result [1] | Kd [2]
GST-UBE2R2 wild-type (enzyme) MAQQQMTSSQKALMLELKSLQEEPVEGFRITLVDESDLYNWEVAIFGPPNTLYEGGYFKAHIKFPIDYPYSPPTFRFLTKMWHPNIYENGDVCISILHPPVDDPQSGELPSERWNPTQNVRTILLSVISLLNEPNTFSPANVDASVMFRKWRDSKGKDKEYAEIIRKQVSATKAEAEKDGVKVPTTLAEYCIKTKVPSNDNSSDLLYDDLYDDDIDDEDEEEEDADCYDDDDSGNEES | – | 650 µM
GST-UBE2R2 R149E (enzyme) MAQQQMTSSQKALMLELKSLQEEPVEGFRITLVDESDLYNWEVAIFGPPNTLYEGGYFKAHIKFPIDYPYSPPTFRFLTKMWHPNIYENGDVCISILHPPVDDPQSGELPSERWNPTQNVRTILLSVISLLNEPNTFSPANVDASVMFEKWRDSKGKDKEYAEIIRKQVSATKAEAEKDGVKVPTTLAEYCIKTKVPSNDNSSDLLYDDLYDDDIDDEDEEEEDADCYDDDDSGNEES | – | > 4000 µM
